Positions count from the first letter of the chain named. In names and notes the source's numbering stands.
Key:
Details in all cases: both partners purified
[1] = target: T1, Mouse s-sortilin A464E, native glycans (mouse); assay: SPR; MX96 (IBIS); NGF, proNGF and proBDNF amine-coupled to a P-COOH SensEye sensor, s-sortilin flowed over as analyte; 25 mM MES pH 5.0, 150 mM NaCl, 0.005% Tween 20, 25 °C; equilibrium binding, 1:1 Langmuir model
T1 construct: Sortilin (Sort1), mouse, luminal segment, residues 1-722 with A464E; secreted with a cystatin signal peptide; Same limits as Dm1; also called A464E s-sortilin; source: HEK293-E, secreted, purified (Ni-NTA, SEC)

[2] = target: T2, Nerve Growth Factor (NGF), mouse (mouse, UniProt P01139 122-241); assay: SPR; equilibrium binding, IBIS MX96; NGF, proNGF and proBDNF amine-coupled, s-sortilin as analyte; 25 mM HEPES pH 7.4, 150 mM NaCl, 0.005% Tween 20, 25 °C; 1:1 Langmuir model
T2 construct: Mouse NGF purified from submaxillary glands; the mature neurotrophin as against proNGF; also called Mouse NGF; source: bought: Biorad (purified from submaxillary glands)

[3] = target: T3, furin-resistant mouse proNGF (mouse, UniProt P01139 122-241); assay: as above
T3 chain: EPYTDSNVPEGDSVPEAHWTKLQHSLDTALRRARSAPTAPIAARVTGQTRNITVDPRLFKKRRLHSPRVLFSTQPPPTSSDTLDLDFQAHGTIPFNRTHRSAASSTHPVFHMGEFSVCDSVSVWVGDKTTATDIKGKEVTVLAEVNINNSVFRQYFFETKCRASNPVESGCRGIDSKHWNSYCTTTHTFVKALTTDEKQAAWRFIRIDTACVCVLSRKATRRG

[4] = target: T2, Nerve Growth Factor (NGF), mouse; assay: SPR; equilibrium binding, IBIS MX96; NGF, proNGF and proBDNF amine-coupled, s-sortilin as analyte; 25 mM MES pH 5.0, 150 mM NaCl, 0.005% Tween 20, 25 °C; 1:1 Langmuir model
[5] = target: T3, furin-resistant mouse proNGF; assay: as above

B1: Furin-resistant mouse proNGF (ligand)
chain: T3 chain with R31A, R32A, R62A, R63A
- Kd [1]: 2280 ± 260 nM

B2: s-sortilin A464E (dimerization interface mutant of the mouse sortilin luminal segment) (domain or fragment)
chain: RRGAPAEDQDCGRLPDFIAKLTNNTHQHVFDDLSGSVSLSWVGDSTGVILVLTTFQVPLVIVSFGQSKLYRSEDYGKNFKDITNLINNTFIRTEFGMAIGPENSGKVILTAEVSGGSRGGRVFRSSDFAKNFVQTDLPFHPLTQMMYSPQNSDYLLALSTENGLWVSKNFGEKWEEIHKAVCLAKWGPNNIIFFTTHVNGSCKADLGALELWRTSDLGKTFKTIGVKIYSFGLGGRFLFASVMADKDTTRRIHVSTDQGDTWSMAQLPSVGQEQFYSILAANEDMVFMHVDEPGDTGFGTIFTSDDRGIVYSKSLDRHLYTTTGGETDFTNVTSLRGVYITSTLSEDNSIQSMITFDQGGRWEHLRKPENSKCDATAKNKNECSLHIHASYSISQKLNVPMAPLSEPNAVGIVIAHGSVGDEISVMVPDVYISDDGGYSWAKMLEGPHYYTILDSGGIIVAIEHSNRPINVIKFSTDEGQCWQSYVFTQEPIYFTGLASEPGARSMNISIWGFTESFITRQWVSYTVDFKDILERNCEEDDYTTWLAHSTDPGDYKDGCILGYKEQFLRLRKSSVCQNGRDYVVAKQPSVCPCSLEDFLCDFGYFRPENASECVEQPELKGHELEFCLYGKEEHLTTNGYRKIPGDKCQGGMNPAREVKDLKKKCTSNFLNPTKQNSKSN
modifications: native glycans (HEK293-E)
- Kd [2]: 320 nM
- Kd [3]: 810 nM
- fold reduction of binding at pH 5.0 against pH 7.4 [4]: 2 fold
- fold reduction of binding at pH 5.0 against pH 7.4 [5]: 2 fold

— publication PMC5700061 (Nature Communications, 2017)
